Experimental data reported in paper PMC7058014.

target: T1, GST-ATML1(30-134) (Arabidopsis thaliana) (UniProt Q8RWU4); assay: EMSA; settings: 15 mM Tris pH 7.5, 50 mM NaCl, 0.1 mM DTT, 5% glycerol, 0.1 mM MgCl2, 50 ng/ul carrier DNA, room temperature 30 min; 6% gel in 0.5x TBE at 4 C
T1 sequence: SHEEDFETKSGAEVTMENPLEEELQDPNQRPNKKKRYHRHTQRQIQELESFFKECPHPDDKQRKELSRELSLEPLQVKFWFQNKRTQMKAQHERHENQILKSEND

binding, binds:
ATGTGAATGAAGCCAAGAATCAGTTAATACTAAAGCTCAAGTGTGCAATATACATCACAATACCTTTGTCCTTGTTTCAGGTCTACTTTTACATCATAGAACTTGCTCCTATAGATAATACAATGCATGGTATTGACGTAAGAACTCTTAGCTTTTCATATTAGTAGCTTATAATGTTCCTTAAATGCGACATTGATATTAAGCTACTACTCAATAACTCAATGGTAACGAATCATAAGTCTGAACTATTCGAAAACAGTAATCCTGAAAAGAAA (double strand) [MIR171A-F1], ATGTTGATTACCCATATACTTTGCTAGCGGCCGAAATGATCACTTTCATGATTTTTTTTTGCATAGGTTCATAAAACATATATTTACTTTTTTTTAAGGAAATATTAAATAAATGATAGGAACTTAACAAGAGAAGAAATAAATAGGGAGGGAGAATATTTGGAAAGTTGAGCCATATTAATTTCGAAATTCAAATGTATATTGGGAGTGGCACAACCCCACCAACATGCCTTGCTCTCTCTTACAAACCTCATAAATACTAAATTGAAAGCTCGTGGGA (double strand) [MIR171B-F3], CCTCCTCAAGAAGGAAAGACAGAGGAGGAGACAAAGAAGTATAGGTTCACATTGCATAGCCAGTTTAGTTTTGAAGGATGGATATATGAAAAAAATATGAAGAGAGAGAAGAGAGAAGAAGAGGAGGATTAAAGAGGGTGAGGCCAGCTTTTGTGCTTTGGTAGTAGATGAGGTTTAAATGCTCCATACCTTCCATTTCCTTCTCTCTTACCCTAATTTAATTCTTCCTCTCCTTTATAACTCCCCACAGACATTCTCACT (double strand) [MIR171A-F3], CCTGATAATTTGATATCATCGGTTGTAAAAACGAATATGTAATGTTACATTACTAATGTATAAAGTATAAACAAATATTATTATCTTTTGAAAAAAGTTTTTCATAGAAACAATTCAAATTTAATAAACCAACCTCCTTTTTGGTATGGGGTTGTTGGTCTAATTTAATGCTTGTCTCTTGCTTGCCTCTCTTCTTCAACCATCTTCGTATTTATATCTTCTTCTTCACTATGCATACTCATAAACTTTGCTACTGGCCGCAT (double strand) [MIR171B-F4], GGGTTCATAACTTGCTTGAGGTTTTGTAAAAAGCAGAGAAAGAGAGAGAGAGGGGCCTAGAAAGAAAGAAAGAAAAGCAGTAAGAGACTATTAAATGTTGCAGGCAGGTCCAGCCAGTGTCCCCTCTCTTCTGCGAGATTCCCTCAAAATTTATTACAAAGCATCTTCATCGATGTTCTTTTAATTCTTCCTCAAAATCTTTTCTCTTTTTTTGGTTATATATATTTGAATTTTGATTTATGAACCTCCTCAAGAAGGAAA (double strand) [MIR171A-F2]
